Tests used:
human FcγRs = assay: SPR binding profile to human FcγRs (panel)
Experimental: Binding of the constructs to human FcγRs was measured via SPR. hCD64 and hCD32a-H131 binding data for IgG1.1 and IgG2 molecules were consistent with expected values for the different Fcs. IgG1.1f is the most inert Fc.
(§1) The binding of antibodies to Fc gamma receptors (FcγRs or FcgRs) was studied using biosensor technologies including Biacore surface plasmon resonance (SPR) and Fortebio Biolayer Interferometry (BLI). SPR studies were performed on a Biacore T100 instrument (GE Healthcare) at 25° C. The Fab fragment from a murine anti-6×His antibody was immobilized on a CM5 sensor chip using EDC/NHS to a density of ˜3000 RU. Various his-tagged FcgRs (7 ug/ml) were captured via the C-terminal his-tag using a contact time of 30 s at 10 ul/min, and the binding of 1.0 μM antibody was evaluated in a running buffer of 10 mM NaPO4, 130 mM NaCl, 0.05% p20 (PBS-T) pH 7.1. FcgRs used for these experiments included CD64 (FcgRI), CD32a-H131 (FcgRIIa-H131), CD32a-R131 (FcgRIIa-R131), CD32b (FcgRIIb), CD16a-V158 (FcgRIIIa-V158), CD16b-NA1 (FcgRIIIb-NA1), and CD16B-NA2 (FcgRIIIb-NA2). BLI experiments were performed on a Fortebio Octet RED instrument (Pall, Fortebio) at 25° C. in 10 mM NaPO4, 130 mM NaCl, 0.05% p20 (PBS-T) pH 7.1. Antibodies were captured out of undiluted expression supernatants on protein A coated sensors, followed by the binding of 1 μM hCD32a-H131, hCD32a-R131, hCD32b, hCD16a-V158, or 0.1 μM hCD64 analytes.
This engineering strategy was further explored by producing other antibodies formatted with IgG2.3G1-AY, IgG2.3G1-AY-S267E (IgG2.3G1-AY-V27), as well as IgG2-B-form variants (IgG2.5G1-AY and IgG2.5G1-AY-V27), and other hybrid antibodies containing different combinations of IgG1 and IgG2 constant domains, and testing the binding of these antibodies to anti-his Fab captured his-tagged FcgRs using Biacore SPR technology.

[1] = molecular target: T1, CD32a-R131 (FcgRIIa-R131) (Homo sapiens, UniProt P12318, H167R); assay: SPR binding to FcgR-his: CD32a-R131; settings: 1 μM antibody, anti-his Fab captured FcgR-his
T1 sequence (P12318 34-217 H167R limits assumed): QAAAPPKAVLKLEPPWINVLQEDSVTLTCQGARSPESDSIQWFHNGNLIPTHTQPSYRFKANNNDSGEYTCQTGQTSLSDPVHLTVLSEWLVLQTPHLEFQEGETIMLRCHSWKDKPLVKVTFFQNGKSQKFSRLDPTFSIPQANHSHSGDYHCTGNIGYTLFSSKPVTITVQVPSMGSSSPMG
Experimental: as §1

CD64 (FcgRI) = CD64 (FcgRI) (Homo sapiens, UniProt P12314); assay: SPR binding of 1.0 μM antibody to anti-his Fab captured FcgR-his: CD64
CD64 (FcgRI), sequence (P12314 16-374): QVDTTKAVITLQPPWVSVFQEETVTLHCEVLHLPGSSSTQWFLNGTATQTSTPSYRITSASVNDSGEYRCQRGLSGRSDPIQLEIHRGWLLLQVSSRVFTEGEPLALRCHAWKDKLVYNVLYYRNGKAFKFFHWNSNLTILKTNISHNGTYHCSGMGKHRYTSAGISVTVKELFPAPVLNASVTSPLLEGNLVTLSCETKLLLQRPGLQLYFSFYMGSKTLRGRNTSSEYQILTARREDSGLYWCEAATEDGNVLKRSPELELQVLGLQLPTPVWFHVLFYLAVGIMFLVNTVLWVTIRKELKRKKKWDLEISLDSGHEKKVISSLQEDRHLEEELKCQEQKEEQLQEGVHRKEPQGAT
Experimental: as §1

CD16B-NA2 (FcgRIIIb-NA2) = CD16B-NA2 (FcgRIIIb-NA2) (Homo sapiens, UniProt O75015); assay: SPR binding to FcgR-his: CD16B-NA2; settings: 1 μM antibody, anti-his Fab captured FcgR-his
CD16B-NA2 (FcgRIIIb-NA2), sequence (O75015 17-200 limits assumed): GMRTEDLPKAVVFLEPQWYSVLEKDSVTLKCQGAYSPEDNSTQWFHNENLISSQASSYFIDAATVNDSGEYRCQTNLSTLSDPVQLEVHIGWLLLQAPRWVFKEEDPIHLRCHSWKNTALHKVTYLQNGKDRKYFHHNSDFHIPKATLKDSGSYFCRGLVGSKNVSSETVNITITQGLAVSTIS
Experimental: as §1

[2] = molecular target: CD16a-V158 (FcgRIIIa-V158) (Homo sapiens, UniProt P08637, F176V); assay: SPR binding to FcgR-his: CD16a-V158; settings: 1 μM antibody, anti-his Fab captured FcgR-his
CD16a-V158 (FcgRIIIa-V158), sequence (P08637 17-208 F176V limits assumed): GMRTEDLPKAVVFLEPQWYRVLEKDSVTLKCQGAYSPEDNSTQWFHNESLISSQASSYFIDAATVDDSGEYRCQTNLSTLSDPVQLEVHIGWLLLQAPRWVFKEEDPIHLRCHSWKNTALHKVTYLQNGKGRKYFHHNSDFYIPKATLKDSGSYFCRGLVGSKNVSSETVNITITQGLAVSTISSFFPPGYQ
Experimental: as §1

[3] = molecular target: T2, CD32a-H131 (FcgRIIa-H131) (Homo sapiens, UniProt P12318); assay: SPR binding to FcgR-his: CD32a-H131; settings: 1 μM antibody, anti-his Fab captured FcgR-his
T2 sequence (P12318 34-217 limits assumed): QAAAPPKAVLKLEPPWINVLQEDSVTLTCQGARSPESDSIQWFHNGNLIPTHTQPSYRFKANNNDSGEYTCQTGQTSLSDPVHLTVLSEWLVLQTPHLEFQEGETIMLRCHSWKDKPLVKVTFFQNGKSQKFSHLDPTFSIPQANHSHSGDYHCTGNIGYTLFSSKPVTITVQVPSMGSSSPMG
Experimental: as §1

CD32b (FcgRIIb) = molecular target: T3, CD32b (FcgRIIb) (Homo sapiens, UniProt P31994); assay: SPR binding to FcgR-his: CD32b; settings: 1 μM antibody, anti-his Fab captured FcgR-his
T3 sequence (P31994 43-310): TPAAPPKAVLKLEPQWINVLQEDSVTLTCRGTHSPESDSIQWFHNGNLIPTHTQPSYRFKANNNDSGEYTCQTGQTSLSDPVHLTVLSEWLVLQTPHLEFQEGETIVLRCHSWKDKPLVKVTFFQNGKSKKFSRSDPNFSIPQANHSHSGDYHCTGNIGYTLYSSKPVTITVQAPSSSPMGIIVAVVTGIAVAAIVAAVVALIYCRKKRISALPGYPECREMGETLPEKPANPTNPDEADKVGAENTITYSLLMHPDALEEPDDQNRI
Experimental: as §1

B1: IgG2.3G1-AY-V27: IgG2.3G1-AY constant region with S267E (protein)
chain: ASTKGPSVFPLAPCSRSTSESTAALGCLVKDYFPEPVTVSWNSGALTSGVHTFPAVLQSSGLYSLSSVVTVPSSNFGTQTYTCNVDHKPSNTKVDKTVERKSCVECPPCPAPELLGGPSVFLFPPKPKDTLMISRTPEVTCVVVDVEHEDPEVKFNWYVDGVEVHNAKTKPREEQYNSTYRVVSVLTVLHQDWLNGKEYKCKVSNKALPAPIEKTISKAKGQPREPQVYTLPPSREEMTKNQVSLTCLVKGFYPSDIAVEWESNGQPENNYKTTPPVLDSDGSFFLYSKLTVDKSRWQQGNVFSCSVMHEALHNHYTQKSLSLSPGK
modifications: Synthetic: IgG2.3G1-AY-V27
notes: IgG2.3G1-AY constant region with S267E
FcgR binding properties by SPR (in words) (human FcγRs): comparable FcgR binding properties to IgG1f and IgG1f-S267E, respectively

B2: mAb7-IgG2.3G1-AY-V27 (protein)
constant: ASTKGPSVFPLAPCSRSTSESTAALGCLVKDYFPEPVTVSWNSGALTSGVHTFPAVLQSSGLYSLSSVVTVPSSNFGTQTYTCNVDHKPSNTKVDKTVERKSCVECPPCPAPELLGGPSVFLFPPKPKDTLMISRTPEVTCVVVDVEHEDPEVKFNWYVDGVEVHNAKTKPREEQYNSTYRVVSVLTVLHQDWLNGKEYKCKVSNKALPAPIEKTISKAKGQPREPQVYTLPPSREEMTKNQVSLTCLVKGFYPSDIAVEWESNGQPENNYKTTPPVLDSDGSFFLYSKLTVDKSRWQQGNVFSCSVMHEALHNHYTQKSLSLSPGK
modifications: left off: another chain or arm of the molecule
% Rmax, binding to hCD32a-R131 [1]: 92%
% Rmax, binding to hCD64 (CD64 (FcgRI)): 84%
% Rmax, binding to hCD16B-NA2 (CD16B-NA2 (FcgRIIIb-NA2)): 7%
% Rmax, binding to hCD16a-V158 [2]: 26%
% Rmax, binding to hCD32a-H131 [3]: 68%
% Rmax, binding to hCD32b (CD32b (FcgRIIb)): 76%

B3: mAb7-IgG2.5G1-AY-V27 (protein)
constant: ASTKGPSVFPLAPSSRSTSESTAALGCLVKDYFPEPVTVSWNSGALTSGVHTFPAVLQSSGLYSLSSVVTVPSSNFGTQTYTCNVDHKPSNTKVDKTVERKCCVECPPCPAPELLGGPSVFLFPPKPKDTLMISRTPEVTCVVVDVEHEDPEVKFNWYVDGVEVHNAKTKPREEQYNSTYRVVSVLTVLHQDWLNGKEYKCKVSNKALPAPIEKTISKAKGQPREPQVYTLPPSREEMTKNQVSLTCLVKGFYPSDIAVEWESNGQPENNYKTTPPVLDSDGSFFLYSKLTVDKSRWQQGNVFSCSVMHEALHNHYTQKSLSLSPGK
modifications: left off: another chain or arm of the molecule
% Rmax, binding to hCD32a-R131 [1]: 89%
% Rmax, binding to hCD64 (CD64 (FcgRI)): 81%
% Rmax, binding to hCD16B-NA2 (CD16B-NA2 (FcgRIIIb-NA2)): 9%
% Rmax, binding to hCD16a-V158 [2]: 32%
% Rmax, binding to hCD32a-H131 [3]: 74%
% Rmax, binding to hCD32b (CD32b (FcgRIIb)): 84%

B4: mAb8-IgG2.5G1-AY-V27 (protein)
constant: ASTKGPSVFPLAPSSRSTSESTAALGCLVKDYFPEPVTVSWNSGALTSGVHTFPAVLQSSGLYSLSSVVTVPSSNFGTQTYTCNVDHKPSNTKVDKTVERKCCVECPPCPAPELLGGPSVFLFPPKPKDTLMISRTPEVTCVVVDVEHEDPEVKFNWYVDGVEVHNAKTKPREEQYNSTYRVVSVLTVLHQDWLNGKEYKCKVSNKALPAPIEKTISKAKGQPREPQVYTLPPSREEMTKNQVSLTCLVKGFYPSDIAVEWESNGQPENNYKTTPPVLDSDGSFFLYSKLTVDKSRWQQGNVFSCSVMHEALHNHYTQKSLSLSPGK
modifications: left off: another chain or arm of the molecule
% Rmax, binding to hCD32a-R131 [1]: 79%
% Rmax, binding to hCD64 (CD64 (FcgRI)): 77%
% Rmax, binding to hCD16B-NA2 (CD16B-NA2 (FcgRIIIb-NA2)): 10%
% Rmax, binding to hCD16a-V158 [2]: 33%
% Rmax, binding to hCD32a-H131 [3]: 76%
% Rmax, binding to hCD32b (CD32b (FcgRIIb)): 77%

B5: mAb4-IgG2.5 (protein)
constant: ASTKGPSVFPLAPSSRSTSESTAALGCLVKDYFPEPVTVSWNSGALTSGVHTFPAVLQSSGLYSLSSVVTVPSSNFGTQTYTCNVDHKPSNTKVDKTVERKCCVECPPCPAPPVAGPSVFLFPPKPKDTLMISRTPEVTCVVVDVSHEDPEVQFNWYVDGVEVHNAKTKPREEQFNSTFRVVSVLTVVHQDWLNGKEYKCKVSNKGLPAPIEKTISKTKGQPREPQVYTLPPSREEMTKNQVSLTCLVKGFYPSDIAVEWESNGQPENNYKTTPPMLDSDGSFFLYSKLTVDKSRWQQGNVFSCSVMHEALHNHYTQKSLSLSPGK
modifications: left off: another chain or arm of the molecule
% Rmax, binding to hCD32a-R131 [1]: 8%
% Rmax, binding to hCD64 (CD64 (FcgRI)): 2%
% Rmax, binding to hCD16B-NA2 (CD16B-NA2 (FcgRIIIb-NA2)): 0%
% Rmax, binding to hCD16a-V158 [2]: 1%
% Rmax, binding to hCD32a-H131 [3]: 46%
% Rmax, binding to hCD32b (CD32b (FcgRIIb)): 1%

B6: mAb13-IgG2.5 (protein)
constant: ASTKGPSVFPLAPSSRSTSESTAALGCLVKDYFPEPVTVSWNSGALTSGVHTFPAVLQSSGLYSLSSVVTVPSSNFGTQTYTCNVDHKPSNTKVDKTVERKCCVECPPCPAPPVAGPSVFLFPPKPKDTLMISRTPEVTCVVVDVSHEDPEVQFNWYVDGVEVHNAKTKPREEQFNSTFRVVSVLTVVHQDWLNGKEYKCKVSNKGLPAPIEKTISKTKGQPREPQVYTLPPSREEMTKNQVSLTCLVKGFYPSDIAVEWESNGQPENNYKTTPPMLDSDGSFFLYSKLTVDKSRWQQGNVFSCSVMHEALHNHYTQKSLSLSPGK
modifications: left off: another chain or arm of the molecule
% Rmax, binding to hCD32a-R131 [1]: 4%
% Rmax, binding to hCD64 (CD64 (FcgRI)): −2%
% Rmax, binding to hCD16B-NA2 (CD16B-NA2 (FcgRIIIb-NA2)): −2%
% Rmax, binding to hCD16a-V158 [2]: 0%
% Rmax, binding to hCD32a-H131 [3]: 39%
% Rmax, binding to hCD32b (CD32b (FcgRIIb)): −2%

B7: mAb5-IgG2.5 (protein)
constant: ASTKGPSVFPLAPSSRSTSESTAALGCLVKDYFPEPVTVSWNSGALTSGVHTFPAVLQSSGLYSLSSVVTVPSSNFGTQTYTCNVDHKPSNTKVDKTVERKCCVECPPCPAPPVAGPSVFLFPPKPKDTLMISRTPEVTCVVVDVSHEDPEVQFNWYVDGVEVHNAKTKPREEQFNSTFRVVSVLTVVHQDWLNGKEYKCKVSNKGLPAPIEKTISKTKGQPREPQVYTLPPSREEMTKNQVSLTCLVKGFYPSDIAVEWESNGQPENNYKTTPPMLDSDGSFFLYSKLTVDKSRWQQGNVFSCSVMHEALHNHYTQKSLSLSPGK
modifications: left off: another chain or arm of the molecule
% Rmax, binding to hCD32a-R131 [1]: 26%
% Rmax, binding to hCD64 (CD64 (FcgRI)): 6%
% Rmax, binding to hCD16B-NA2 (CD16B-NA2 (FcgRIIIb-NA2)): 1%
% Rmax, binding to hCD16a-V158 [2]: 4%
% Rmax, binding to hCD32a-H131 [3]: 89%
% Rmax, binding to hCD32b (CD32b (FcgRIIb)): 5%

Reference: patent US10100129B2, “Antibodies against CD73 and uses thereof” (BRISTOL-MYERS SQUIBB COMPANY, priority 2014, dated 2018)
